In the supplement of paper PMC10567573:

B1: ESRRA (parent)
chain: LGVAQRSLPLQDELAFAEDLVLDE

Variants of: B1
Test: protein stability index of a GFP-peptide fusion (GPS, HEK-293T) (PSI 1-6); higher = more stable
Conditions: c terminus: a fixed tail appended
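Note: lentivirally expressed fusions sorted by FACS into six bins by GFP to DsRed ratio, PSI derived from sequencing read proportions per bin multiplied by bin number.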

Q: For LGVAQRSLPLQDELAFAEDLMLDE [V21M], which protein stability index is on record?
A: The protein stability index was 4.49.

Q: For LGVAQRSLPLQDELAFAEDLTLDE [V21T], which protein stability index is on record?
A: The protein stability index was 5.39.

Q: With LGVAQRSLPLQDELAFAEDLILDE [V21I] as the variant, how does the protein stability index read?
A: Its protein stability index is 1.56.

Q: With LGVAQRSLPLQDELAFAEDLCLDE [V21C] as the variant, how does the protein stability index read?
A: Its protein stability index is 4.31.

Q: Which protein stability index does the source give for LGVAQRSLPLQDELAFAEDLSLDE [V21S] here?
A: Its protein stability index is 4.43.

Q: For LGVAQRSLPLQDELAFAEDLHLDE [V21H], which protein stability index is on record?
A: Its protein stability index is 5.28.

Q: Which protein stability index does the source give for LGVAQRSLPLQDELAFAEDLDLDE [V21D] here?
A: Its protein stability index is 5.76.

Q: For LGVAQRSLPLQDELAFAEDLNLDE [V21N], which protein stability index is on record?
A: The protein stability index was 5.49.

Q: Which protein stability index does the source give for LGVAQRSLPLQDELAFAEDLWLDE [V21W] here?
A: Its protein stability index is 4.03.

Q: With LGVAQRSLPLQDELAFAEDLALDE [V21A] as the variant, how does the protein stability index read?
A: The protein stability index was 5.06.

Q: For LGVAQRSLPLQDELAFAEDLKLDE [V21K], which protein stability index is on record?
A: The protein stability index was 5.28.

Q: With LGVAQRSLPLQDELAFAEDLVLSE [D23S] as the variant, how does the protein stability index read?
A: The protein stability index was 2.58.

Q: Which protein stability index does the source give for LGVAQRSLPLQDELAFAEDLVLLE [D23L] here?
A: Its protein stability index is 2.64.

Q: For LGVAQRSLPLQDELAFAEDLVLFE [D23F], which protein stability index is on record?
A: Its protein stability index is 5.28.

Q: Which protein stability index does the source give for LGVAQRSLPLQDELAFAEDLVLCE [D23C] here?
A: The protein stability index was 2.38.

Q: For LGVAQRSLPLQDELAFAEDLVLPE [D23P], which protein stability index is on record?
A: The protein stability index was 4.49.

Q: For LGVAQRSLPLQDELAFAEDLVLQE [D23Q], which protein stability index is on record?
A: The protein stability index was 1.74.

Q: For LGVAQRSLPLQDELAFAEDLVLIE [D23I], which protein stability index is on record?
A: Its protein stability index is 1.51.

Q: Which protein stability index does the source give for LGVAQRSLPLQDELAFAEDLVLNE [D23N] here?
A: The protein stability index was 1.88.

Q: With LGVAQQSLPLQDELAFAEDLVLDE [R6Q] as the variant, how does the protein stability index read?
A: Its protein stability index is 3.81.

Q: For LGVAQMSLPLQDELAFAEDLVLDE [R6M], which protein stability index is on record?
A: The protein stability index was 2.35.

Q: With LGVAQISLPLQDELAFAEDLVLDE [R6I] as the variant, how does the protein stability index read?
A: Its protein stability index is 2.37.

Q: With LGVAQPSLPLQDELAFAEDLVLDE [R6P] as the variant, how does the protein stability index read?
A: Its protein stability index is 3.62.

Q: Which protein stability index does the source give for LGVAQNSLPLQDELAFAEDLVLDE [R6N] here?
A: Its protein stability index is 2.64.

Q: With LGVAQHSLPLQDELAFAEDLVLDE [R6H] as the variant, how does the protein stability index read?
A: The protein stability index was 2.55.

Q: Which protein stability index does the source give for LGVAQRELPLQDELAFAEDLVLDE [S7E] here?
A: The protein stability index was 2.57.

Q: Which protein stability index does the source give for LGVAQRDLPLQDELAFAEDLVLDE [S7D] here?
A: The protein stability index was 3.25.

Q: Which protein stability index does the source give for LGVAQRLLPLQDELAFAEDLVLDE [S7L] here?
A: The protein stability index was 2.58.

Q: For LGVAQRNLPLQDELAFAEDLVLDE [S7N], which protein stability index is on record?
A: Its protein stability index is 2.46.

Q: Which protein stability index does the source give for LGVAQRALPLQDELAFAEDLVLDE [S7A] here?
A: Its protein stability index is 3.38.

Q: For LGVAQRPLPLQDELAFAEDLVLDE [S7P], which protein stability index is on record?
A: The protein stability index was 3.14.

Q: For LGVAQRWLPLQDELAFAEDLVLDE [S7W], which protein stability index is on record?
A: Its protein stability index is 1.78.

Q: For LGVAQRTLPLQDELAFAEDLVLDE [S7T], which protein stability index is on record?
A: The protein stability index was 3.34.

Q: For LGVAQRSLPLQDEMAFAEDLVLDE [L14M], which protein stability index is on record?
A: Its protein stability index is 2.13.

Q: With LGVAQRSLPLQDEGAFAEDLVLDE [L14G] as the variant, how does the protein stability index read?
A: Its protein stability index is 5.46.

Q: With LGVAQRSLPLQDETAFAEDLVLDE [L14T] as the variant, how does the protein stability index read?
A: The protein stability index was 5.5.

Q: With LGVAQRSLPLQDEWAFAEDLVLDE [L14W] as the variant, how does the protein stability index read?
A: Its protein stability index is 4.37.

Q: For LGVAQRSLPLQDEPAFAEDLVLDE [L14P], which protein stability index is on record?
A: Its protein stability index is 5.38.

Q: For LGVAQRSLPLQDENAFAEDLVLDE [L14N], which protein stability index is on record?
A: Its protein stability index is 5.42.

Q: For LGVAQRSLPLQDEYAFAEDLVLDE [L14Y], which protein stability index is on record?
A: The protein stability index was 4.81.

Q: Which protein stability index does the source give for LGVAQRSLPLQDEDAFAEDLVLDE [L14D] here?
A: Its protein stability index is 5.68.

Q: Which protein stability index does the source give for LGVAQRSLPLQDERAFAEDLVLDE [L14R] here?
A: The protein stability index was 5.33.

Q: Which protein stability index does the source give for LGVAQRSLPLQDEIAFAEDLVLDE [L14I] here?
A: Its protein stability index is 5.15.

Q: Which protein stability index does the source give for LGVAQRSLPLQDEFAFAEDLVLDE [L14F] here?
A: Its protein stability index is 5.55.

Q: With LGVAQRSLPLQDELAFADDLVLDE [E18D] as the variant, how does the protein stability index read?
A: The protein stability index was 5.17.

Q: For LGVAQRSLPLQDELAFAVDLVLDE [E18V], which protein stability index is on record?
A: The protein stability index was 3.65.

Q: For LGVAQRSLPLQDELAFAWDLVLDE [E18W], which protein stability index is on record?
A: Its protein stability index is 3.11.

Q: With LGVAQRSLPLQDELAFAQDLVLDE [E18Q] as the variant, how does the protein stability index read?
A: The protein stability index was 4.34.

Q: Which protein stability index does the source give for LGVAQRSLPLQDELAFAYDLVLDE [E18Y] here?
A: The protein stability index was 3.48.

Q: With LGVAQRSLPLQDELAFANDLVLDE [E18N] as the variant, how does the protein stability index read?
A: The protein stability index was 4.9.

Q: With LGVAQRSLPLQDELAFAHDLVLDE [E18H] as the variant, how does the protein stability index read?
A: The protein stability index was 4.6.

Q: Which protein stability index does the source give for LGVAQRSLPLQDELAFALDLVLDE [E18L] here?
A: Its protein stability index is 2.89.

Q: Which protein stability index does the source give for LGVAQRSLPLQGELAFAEDLVLDE [D12G] here?
A: The protein stability index was 3.59.

Q: With LGVAQRSLPLQYELAFAEDLVLDE [D12Y] as the variant, how does the protein stability index read?
A: Its protein stability index is 1.8.

Q: Which protein stability index does the source give for LGVAQRSLPLQWELAFAEDLVLDE [D12W] here?
A: The protein stability index was 2.04.

Q: Which protein stability index does the source give for LGVAQRSLPLQFELAFAEDLVLDE [D12F] here?
A: Its protein stability index is 1.46.

Q: With LGVAQRSLPLQCELAFAEDLVLDE [D12C] as the variant, how does the protein stability index read?
A: The protein stability index was 1.92.

Q: With LGVAQRSLPLQVELAFAEDLVLDE [D12V] as the variant, how does the protein stability index read?
A: Its protein stability index is 2.22.

Q: For LGVAQRSLPLQPELAFAEDLVLDE [D12P], which protein stability index is on record?
A: The protein stability index was 4.59.

Q: Which protein stability index does the source give for LGVAQRSLPLQDELAFAEYLVLDE [D19Y] here?
A: The protein stability index was 2.03.

Q: With LGVAQRSLPLQDELAFAEALVLDE [D19A] as the variant, how does the protein stability index read?
A: Its protein stability index is 1.89.

Q: With LGVAQRSLPLQDELAFAEMLVLDE [D19M] as the variant, how does the protein stability index read?
A: Its protein stability index is 2.43.

Q: For LGVAQRSLPLQDELAFAEGLVLDE [D19G], which protein stability index is on record?
A: Its protein stability index is 2.05.

Q: With LGVAQRSLPLQDELAFAEVLVLDE [D19V] as the variant, how does the protein stability index read?
A: Its protein stability index is 1.76.

Q: For LGVAQRSLPLQDELAFAEILVLDE [D19I], which protein stability index is on record?
A: Its protein stability index is 1.94.

Q: Which protein stability index does the source give for LGVAQRSLPLQDELAFAEFLVLDE [D19F] here?
A: The protein stability index was 2.56.

Q: Which protein stability index does the source give for LGVAQRSLPLQDELAFAENLVLDE [D19N] here?
A: The protein stability index was 1.76.

Q: Which protein stability index does the source give for LGVAQRSLPLQDWLAFAEDLVLDE [E13W] here?
A: Its protein stability index is 3.24.

Q: Which protein stability index does the source give for LGVAQRSLPLQDRLAFAEDLVLDE [E13R] here?
A: The protein stability index was 4.62.

Q: For LGVAQRSLPLQDLLAFAEDLVLDE [E13L], which protein stability index is on record?
A: The protein stability index was 2.5.

Q: With LGVAQRSLPLQDPLAFAEDLVLDE [E13P] as the variant, how does the protein stability index read?
A: Its protein stability index is 4.71.

Q: Which protein stability index does the source give for LGVAQRSLPLQDYLAFAEDLVLDE [E13Y] here?
A: Its protein stability index is 3.5.

Q: Which protein stability index does the source give for LGVAQRSLPLQDILAFAEDLVLDE [E13I] here?
A: The protein stability index was 2.42.

Q: For LGVAQRSLPLQDSLAFAEDLVLDE [E13S], which protein stability index is on record?
A: Its protein stability index is 4.45.

Q: Which protein stability index does the source give for LGVAQRSLPLQDGLAFAEDLVLDE [E13G] here?
A: The protein stability index was 4.81.

Q: For LGVWQRSLPLQDELAFAEDLVLDE [A4W], which protein stability index is on record?
A: Its protein stability index is 2.3.

Q: For LGVPQRSLPLQDELAFAEDLVLDE [A4P], which protein stability index is on record?
A: The protein stability index was 3.1.

Q: With LGVTQRSLPLQDELAFAEDLVLDE [A4T] as the variant, how does the protein stability index read?
A: Its protein stability index is 2.43.

Q: Which protein stability index does the source give for LGVEQRSLPLQDELAFAEDLVLDE [A4E] here?
A: Its protein stability index is 3.45.

Q: Which protein stability index does the source give for LGVLQRSLPLQDELAFAEDLVLDE [A4L] here?
A: Its protein stability index is 2.42.

Q: With LGVVQRSLPLQDELAFAEDLVLDE [A4V] as the variant, how does the protein stability index read?
A: The protein stability index was 2.39.

Q: Which protein stability index does the source give for LGVGQRSLPLQDELAFAEDLVLDE [A4G] here?
A: The protein stability index was 2.41.

Q: With LGVHQRSLPLQDELAFAEDLVLDE [A4H] as the variant, how does the protein stability index read?
A: The protein stability index was 2.21.

Q: With LGVAQRSLPLFDELAFAEDLVLDE [Q11F] as the variant, how does the protein stability index read?
A: Its protein stability index is 4.

Q: With LGVAQRSLPLTDELAFAEDLVLDE [Q11T] as the variant, how does the protein stability index read?
A: The protein stability index was 4.57.

Q: For LGVAQRSLPLMDELAFAEDLVLDE [Q11M], which protein stability index is on record?
A: The protein stability index was 3.65.

Q: With LGVAQRSLPLPDELAFAEDLVLDE [Q11P] as the variant, how does the protein stability index read?
A: The protein stability index was 4.66.

Q: Which protein stability index does the source give for LGVAQRSLPLYDELAFAEDLVLDE [Q11Y] here?
A: Its protein stability index is 3.12.

Q: For LGVAQRSLPLWDELAFAEDLVLDE [Q11W], which protein stability index is on record?
A: Its protein stability index is 2.71.

Q: With LGVAQRSLPLDDELAFAEDLVLDE [Q11D] as the variant, how does the protein stability index read?
A: The protein stability index was 4.92.

Q: Which protein stability index does the source give for LGVAQRSLPLKDELAFAEDLVLDE [Q11K] here?
A: Its protein stability index is 2.

Q: For LGVAQRSLPLQDELAFAEDGVLDE [L20G], which protein stability index is on record?
A: Its protein stability index is 5.51.

Q: For LGVAQRSLPLQDELAFAEDCVLDE [L20C], which protein stability index is on record?
A: The protein stability index was 2.51.

Q: For LGVAQRSLPLQDELAFAEDNVLDE [L20N], which protein stability index is on record?
A: Its protein stability index is 4.85.
